Test results from article PMC12416549 (2024).

T1: TNFR1 (Homo sapiens, UniProt P19438)
T1 chain: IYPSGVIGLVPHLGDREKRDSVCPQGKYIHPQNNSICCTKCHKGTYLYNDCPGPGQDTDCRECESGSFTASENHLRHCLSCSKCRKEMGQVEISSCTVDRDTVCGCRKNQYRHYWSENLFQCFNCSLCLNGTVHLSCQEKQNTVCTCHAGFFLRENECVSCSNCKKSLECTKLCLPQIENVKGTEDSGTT


Target: T1, TNFR1
Assay: yeast display SC50

Row | apparent Kd (screen) [nM] | Binder
1 | 1.16 | K8V (designed binder) SMEEEVEVAAKEYEKKKKEAIEKHLEKLKAKDKEAAERFLKELEEAAKEYAKDEAKTMSEEEAKRRAKKYKEKVLLSELSEEEQKEIKEAEEKLVRTILKYVEEAAK
2 | 0.446 | A51C (designed binder) SMEEEVEKAAKEYEKKKKEAIEKHLEKLKAKDKEAAERFLKELEEAAKEYCKDEAKTMSEEEAKRRAKKYKEKVLLSELSEEEQKEIKEAEEKLVRTILKYVEEAAK
3 | 0.49 | A90Y (designed binder) SMEEEVEKAAKEYEKKKKEAIEKHLEKLKAKDKEAAERFLKELEEAAKEYAKDEAKTMSEEEAKRRAKKYKEKVLLSELSEEEQKEIKEYEEKLVRTILKYVEEAAK
4 | 0.956 | H24F (designed binder) SMEEEVEKAAKEYEKKKKEAIEKFLEKLKAKDKEAAERFLKELEEAAKEYAKDEAKTMSEEEAKRRAKKYKEKVLLSELSEEEQKEIKEAEEKLVRTILKYVEEAAK
5 | 0.49 | A51R (designed binder) SMEEEVEKAAKEYEKKKKEAIEKHLEKLKAKDKEAAERFLKELEEAAKEYRKDEAKTMSEEEAKRRAKKYKEKVLLSELSEEEQKEIKEAEEKLVRTILKYVEEAAK
6 | 0.653 | K15T (designed binder) SMEEEVEKAAKEYETKKKEAIEKHLEKLKAKDKEAAERFLKELEEAAKEYAKDEAKTMSEEEAKRRAKKYKEKVLLSELSEEEQKEIKEAEEKLVRTILKYVEEAAK
7 | 4.39 | F39H (designed binder) SMEEEVEKAAKEYEKKKKEAIEKHLEKLKAKDKEAAERHLKELEEAAKEYAKDEAKTMSEEEAKRRAKKYKEKVLLSELSEEEQKEIKEAEEKLVRTILKYVEEAAK
8 | 1.54 | V6K (designed binder) SMEEEKEKAAKEYEKKKKEAIEKHLEKLKAKDKEAAERFLKELEEAAKEYAKDEAKTMSEEEAKRRAKKYKEKVLLSELSEEEQKEIKEAEEKLVRTILKYVEEAAK
9 | 2.48 | R96C (designed binder) SMEEEVEKAAKEYEKKKKEAIEKHLEKLKAKDKEAAERFLKELEEAAKEYAKDEAKTMSEEEAKRRAKKYKEKVLLSELSEEEQKEIKEAEEKLVCTILKYVEEAAK
10 | 2.25 | T97S (designed binder) SMEEEVEKAAKEYEKKKKEAIEKHLEKLKAKDKEAAERFLKELEEAAKEYAKDEAKTMSEEEAKRRAKKYKEKVLLSELSEEEQKEIKEAEEKLVRSILKYVEEAAK
11 | 1.54 | E91P (designed binder) SMEEEVEKAAKEYEKKKKEAIEKHLEKLKAKDKEAAERFLKELEEAAKEYAKDEAKTMSEEEAKRRAKKYKEKVLLSELSEEEQKEIKEAPEKLVRTILKYVEEAAK
12 | 0.956 | E7D (designed binder) SMEEEVDKAAKEYEKKKKEAIEKHLEKLKAKDKEAAERFLKELEEAAKEYAKDEAKTMSEEEAKRRAKKYKEKVLLSELSEEEQKEIKEAEEKLVRTILKYVEEAAK
13 | 22.2 | Q84P (designed binder) SMEEEVEKAAKEYEKKKKEAIEKHLEKLKAKDKEAAERFLKELEEAAKEYAKDEAKTMSEEEAKRRAKKYKEKVLLSELSEEEPKEIKEAEEKLVRTILKYVEEAAK
14 | 0.869 | A30F (designed binder) SMEEEVEKAAKEYEKKKKEAIEKHLEKLKFKDKEAAERFLKELEEAAKEYAKDEAKTMSEEEAKRRAKKYKEKVLLSELSEEEQKEIKEAEEKLVRTILKYVEEAAK
15 | 3.99 | K56Y (designed binder) SMEEEVEKAAKEYEKKKKEAIEKHLEKLKAKDKEAAERFLKELEEAAKEYAKDEAYTMSEEEAKRRAKKYKEKVLLSELSEEEQKEIKEAEEKLVRTILKYVEEAAK
16 | 0.49 | K15L (designed binder) SMEEEVEKAAKEYELKKKEAIEKHLEKLKAKDKEAAERFLKELEEAAKEYAKDEAKTMSEEEAKRRAKKYKEKVLLSELSEEEQKEIKEAEEKLVRTILKYVEEAAK
17 | 13.8 | Y50F (designed binder) SMEEEVEKAAKEYEKKKKEAIEKHLEKLKAKDKEAAERFLKELEEAAKEFAKDEAKTMSEEEAKRRAKKYKEKVLLSELSEEEQKEIKEAEEKLVRTILKYVEEAAK
18 | 1.27 | S77Q (designed binder) SMEEEVEKAAKEYEKKKKEAIEKHLEKLKAKDKEAAERFLKELEEAAKEYAKDEAKTMSEEEAKRRAKKYKEKVLLQELSEEEQKEIKEAEEKLVRTILKYVEEAAK

Row | apparent Kd (screen) [nM] | Binder
19 | 6.43 | E45R (designed binder) SMEEEVEKAAKEYEKKKKEAIEKHLEKLKAKDKEAAERFLKELERAAKEYAKDEAKTMSEEEAKRRAKKYKEKVLLSELSEEEQKEIKEAEEKLVRTILKYVEEAAK
20 | 0.593 | K93R (designed binder) SMEEEVEKAAKEYEKKKKEAIEKHLEKLKAKDKEAAERFLKELEEAAKEYAKDEAKTMSEEEAKRRAKKYKEKVLLSELSEEEQKEIKEAEERLVRTILKYVEEAAK
21 | 1.05 | E22K (designed binder) SMEEEVEKAAKEYEKKKKEAIKKHLEKLKAKDKEAAERFLKELEEAAKEYAKDEAKTMSEEEAKRRAKKYKEKVLLSELSEEEQKEIKEAEEKLVRTILKYVEEAAK
22 | 0.49 | E19T (designed binder) SMEEEVEKAAKEYEKKKKTAIEKHLEKLKAKDKEAAERFLKELEEAAKEYAKDEAKTMSEEEAKRRAKKYKEKVLLSELSEEEQKEIKEAEEKLVRTILKYVEEAAK
23 | 10.4 | R96D (designed binder) SMEEEVEKAAKEYEKKKKEAIEKHLEKLKAKDKEAAERFLKELEEAAKEYAKDEAKTMSEEEAKRRAKKYKEKVLLSELSEEEQKEIKEAEEKLVDTILKYVEEAAK
24 | 1.16 | E82P (designed binder) SMEEEVEKAAKEYEKKKKEAIEKHLEKLKAKDKEAAERFLKELEEAAKEYAKDEAKTMSEEEAKRRAKKYKEKVLLSELSEPEQKEIKEAEEKLVRTILKYVEEAAK
25 | 0.446 | Y101N (designed binder) SMEEEVEKAAKEYEKKKKEAIEKHLEKLKAKDKEAAERFLKELEEAAKEYAKDEAKTMSEEEAKRRAKKYKEKVLLSELSEEEQKEIKEAEEKLVRTILKNVEEAAK
26 | 0.405 | E82R (designed binder) SMEEEVEKAAKEYEKKKKEAIEKHLEKLKAKDKEAAERFLKELEEAAKEYAKDEAKTMSEEEAKRRAKKYKEKVLLSELSEREQKEIKEAEEKLVRTILKYVEEAAK
27 | 1.05 | K16V (designed binder) SMEEEVEKAAKEYEKVKKEAIEKHLEKLKAKDKEAAERFLKELEEAAKEYAKDEAKTMSEEEAKRRAKKYKEKVLLSELSEEEQKEIKEAEEKLVRTILKYVEEAAK
28 | 6.43 | I98C (designed binder) SMEEEVEKAAKEYEKKKKEAIEKHLEKLKAKDKEAAERFLKELEEAAKEYAKDEAKTMSEEEAKRRAKKYKEKVLLSELSEEEQKEIKEAEEKLVRTCLKYVEEAAK
29 | 0.49 | A51E (designed binder) SMEEEVEKAAKEYEKKKKEAIEKHLEKLKAKDKEAAERFLKELEEAAKEYEKDEAKTMSEEEAKRRAKKYKEKVLLSELSEEEQKEIKEAEEKLVRTILKYVEEAAK
30 | 1.4 | V102E (designed binder) SMEEEVEKAAKEYEKKKKEAIEKHLEKLKAKDKEAAERFLKELEEAAKEYAKDEAKTMSEEEAKRRAKKYKEKVLLSELSEEEQKEIKEAEEKLVRTILKYEEEAAK
31 | 3 | K31P (designed binder) SMEEEVEKAAKEYEKKKKEAIEKHLEKLKAPDKEAAERFLKELEEAAKEYAKDEAKTMSEEEAKRRAKKYKEKVLLSELSEEEQKEIKEAEEKLVRTILKYVEEAAK
32 | 6.43 | V74K (designed binder) SMEEEVEKAAKEYEKKKKEAIEKHLEKLKAKDKEAAERFLKELEEAAKEYAKDEAKTMSEEEAKRRAKKYKEKKLLSELSEEEQKEIKEAEEKLVRTILKYVEEAAK
33 | 1.27 | E45C (designed binder) SMEEEVEKAAKEYEKKKKEAIEKHLEKLKAKDKEAAERFLKELECAAKEYAKDEAKTMSEEEAKRRAKKYKEKVLLSELSEEEQKEIKEAEEKLVRTILKYVEEAAK
34 | 0.718 | E104S (designed binder) SMEEEVEKAAKEYEKKKKEAIEKHLEKLKAKDKEAAERFLKELEEAAKEYAKDEAKTMSEEEAKRRAKKYKEKVLLSELSEEEQKEIKEAEEKLVRTILKYVESAAK
35 | 11.4 | E7L (designed binder) SMEEEVLKAAKEYEKKKKEAIEKHLEKLKAKDKEAAERFLKELEEAAKEYAKDEAKTMSEEEAKRRAKKYKEKVLLSELSEEEQKEIKEAEEKLVRTILKYVEEAAK
